# B1: HB-EGF: heparin-binding epidermal growth factor, reference epidermal trophic factor, positive control (protein, UniProt Q99075 63-148, looked up)
# Heparin-binding EGF-like …: DLQEADLDLLRVTLSSKPQALATPNKEEHGKRKKKGKGLGKKRDPCLRKYKDFCIHGECKYVKELRAPSCICHPGYHGERCHGLSL
# Test system: human keratinocyte culture
# Test: Filopodia formation in human keratinocyte culture (rhodamine-phalloidin staining, fluorescence microscopy)
# Assay type: cell-based
# Conditions: human keratinocytes
# Procedure: Table 2 indicates the intensity of filopodia formation (number and surface area) in vitro in four keratinocyte cultures under four operating conditions, after treatment with: • a solvent, • HB-EGF (heparin-binding epidermal growth factor), • Picrorhiza kurroa extract obtained without hydrolysis, and • Picrorhiza kurroa extract obtained following hydrolysis.
# The test is performed using a human keratinocyte culture divided into four batches. Cells are treated for 1 h with the products to be tested, fixed in 4% formalin, and then stained with rhodamine-conjugated α-phalloidin (α-phalloidin has high affinity for actin filaments, and its conjugation to rhodamine makes actin filaments fluorescent [540 nm; 565 nm]). The cell morphology is then analyzed under a fluorescence microscope (FIG. 2). • A, solvent, negative (no stimulation); • B, HB-EGF (heparin-binding epidermal growth factor), reference epidermal trophic factor, 5 ng/ml; • C, Picrorhiza kurroa extract obtained without hydrolysis, 100 μg/ml; • D, Picrorhiza kurroa extract obtained following hydrolysis, 100 μg/ml.
molecule,measurement,setting,value
B1,Visual evaluation of the production of filopodia (scale from 0 to 3),"5 ng/ml, 1 h treatment",3
same,Intensity of filopodia formation (effect in words),"HB-EGF 5 ng/ml, extracts 100 μg/ml, 1 h",intense effect
